# Measured values taken from patent US6884616.
# What was measured:
# [1] = biological target: Mononine (purified Factor IX) (UniProt P00740)
# [2] = biological target: Recombinant human Factor IX immunoprecipitated from supernatants of GPIIb-FIX(WT.I1)-transfected HEL cells (UniProt P00740)
substance,measurement,setting,value
"Factor XIa (Enzyme Research Lab., Swansea, UK)",FIX cleavage after incubation with FXIa (rate of activation and protein profile),[1],The rate of activation and the protein profile from HEL supernatants was similar to the results obtained with Mononine
same,"FIX cleavage after incubation with FXIa (immunoblot of immunoprecipitated FIX, enzyme/substrate 1/40)",[2],activation of the immunoprecipitated FIX from HEL cells resulted in the appearance of two bands corresponding to the heavy chain (29 kDa) and the light chain (19 kDa)
